As usually defined, the Kd is the constant that tells how readily two partners part at equilibrium. A high value points to weaker binding. The term stoichiometry N denotes the number of molecules, sites or subunits per partner or assembly.

The target in assay [1] is ZnF domain of Arabidopsis thaliana SPL5, residues 60 to 127 (Arabidopsis thaliana) (UniProt Q9S758). In words: ITC; 200 μM SAP05 from the syringe into 20 μM SPL5^ZnF in the cell; 25 °C, 20 mM HEPES pH 7.5, 150 mM NaCl; one-site binding model. (ITC needs no label: the signal is the heat of the interaction.)
The target in assay [2] is SAP05 of Aster Yellows phytoplasma strain Witches Broom (AYWB), residues 33 to 135 (Aster Yellows phytoplasma strain Witches Broom (AYWB)). In words: ITC; SPL5^ZnF from the syringe (250 μM for wild-type SAP05, 200 μM for the SAP05–Rpn10^vWA complex or SAP05 mutants) into 20 μM partner in the cell; 25 °C, 20 mM HEPES pH 7.5, 150 mM NaCl; one-site binding model.
Assay [3] concerns the target SAP05 D66E (purified, for ITC) (Aster Yellows phytoplasma strain Witches Broom (AYWB)). The description is as above.
The target of assay [4] is SAP05 H58A T60W (purified, for ITC) (Aster Yellows phytoplasma strain Witches Broom (AYWB)). Described as above.
The target in assay [5] is SAP05–Rpn10^vWA complex (Aster Yellows phytoplasma strain Witches Broom (AYWB) | Arabidopsis thaliana) (UniProt P55034). The assay is described as above.

In assay [1], “SAP05 of Aster Yellows phytoplasma strain Witches Broom (AYWB), residues 33 to 135 (natural protein)” showed an equilibrium dissociation constant (Kd) of 0.45 µM and a stoichiometry N of 1.

B1: ZnF domain of Arabidopsis thaliana SPL5, residues 60 to 127 (domain or fragment)
chain: SRLCQVDRCTVNLTEAKQYYRRHRVCEVHAKASAATVAGVRQRFCQQCSRFHELPEFDEAKRSCRRRL
Turning to B1, the equilibrium dissociation constant (Kd) in assay [2] came to 0.52 µM; in assay [3], 17.7 µM; in assay [4] it was 3.6 µM; in assay [5], 0.65 µM. Moreover, the stoichiometry N in assay [5] worked out at 1.

(Values after article PMC10710061.)
